Test [1] has as its target HLA-A*0201/NY-ESO1(157-165)(9V) complex, refolded and biotinylated (human, p9C to valine (9V) (stands in the printed letters), biotin on the Avi tag). The test is described as follows: SPR; ProteOn; the methods tell an inverse set-up (MRGS-6His tagged DARPin captured by an immobilised RGS-His antibody on a GLC chip) and also HLA-A*0201/peptide targets on a neutravidin chip at different dilutions; HEPES buffer. As to conditions: both partners purified.

The target of the next test is CD3ε (UniProt P07766 23-207, SPR construct not described; extracellular domain taken by convention from the UniProt topology. In cell assays CD3ε is full mature chain in the TCR/CD3 complex). The test can be described thus: SPR; Listed KD-values were obtained by surface plasmon resonance; format, CD3ε construct and conditions not told. (In general: SPR reads the build-up and loss of mass on a sensor chip optically.)

Where a chain is given by its changes, count along the chain named.

For orientation: Kd means the concentration at which binding is half-saturated. Usually koff stands for the rate constant with which the complex falls apart. A word on the kon: it is a measure of how fast the partners come together.

Chain of CD3ε (P07766 23-207): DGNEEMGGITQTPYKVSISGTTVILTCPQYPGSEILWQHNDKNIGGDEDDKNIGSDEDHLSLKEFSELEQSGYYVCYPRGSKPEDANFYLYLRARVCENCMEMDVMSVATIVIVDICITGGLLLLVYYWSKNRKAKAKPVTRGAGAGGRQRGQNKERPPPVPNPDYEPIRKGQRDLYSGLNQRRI

B1: NY_1xCD3 (bispecific DARPin T cell engager: HLA-A*0201/NY-ESO1(157-165)-specific DARPin NY_1 linked to a CD3ε-specific DARPin) (designed binder)
chain: DLGKKLLQAARAGQLDEVRELLKAGADVNAKDLIGVTPLHLAAFSGHLEIVEVLLKASADVNAKDVSGRTPLHVAAKHGHLEIVEVLLKAGADVNAKDLIGFTPLHLAAQFGHLEIVEVLLKAGADVNAQDKSGKTPADLAARAGHQDIAEVLQKAAGSPTPTPTTPTPTPTTPTPTPTGSDLGQKLLEAAWAGQDDEVRELLKAGADVNAKNSRGWTPLHTAAQTGHLEIFEVLLKAGADVNAKNDKRVTPLHLAAALGHLEIVEVLLKAGADVNARDSWGTTPADLAAKYGHQDIAEVLQKAA
In test [1], B1 had a dissociation constant (Kd) of 0.00123 µM, a koff of 0.00113 s⁻¹ and a kon of 925000 M⁻¹ s⁻¹.

B2: CD3ε-specific DARPin version 1 (designed binder)
chain: DLGQKLLEAAWAGQDDEVRELLKAGADVNAKNSRGWTPLHTAAQTGHLEIFEVLLKAGADVNAKDDKGVTPLHLAAALGHLEIVEVLLKAGADVNAQDSWGTTPADLAAKYGHEDIAEVLQKAA
notes: four repeats (N-cap/ IR1/ IR2/ C-cap) joined in the printed order; also called CD3-v1; variant-1 (v1)
B2: the dissociation constant (Kd) with CD3ε turned out to be 0.035 ± 0.021 µM.

B3: CD3ε-specific DARPin version 2 (designed binder)
chain: B2 chain with D65N, G68R, Q97R, E114Q
notes: four repeats (N-cap/ IR1/ IR2/ C-cap) joined in the printed order; also called CD3-v2; CD3v2
B3: the equilibrium dissociation constant (Kd) with CD3ε was found to be 0.014 ± 0.003 µM.

B4: CD3ε-specific DARPin version 3 (designed binder)
chain: B2 chain with D15L, E20I, D65T, D66N, G68R, Q97R, S99T, E114R
notes: four repeats (N-cap/ IR1/ IR2/ C-cap) joined in the printed order; also called CD3-v3; CD3v3
For B4, binding with CD3ε was put at a Kd of 0.006 µM.

(Values after article PMC12664392 (iScience, 2025).)
